US20100184658A1 (published 2010)

Assays:
Assay in all cases: cell-based or functional assay
[1] = target: ROCK2 (UniProt O75116 5-554, limits assumed)
[2] = target: T1, PRKG2 (PKG2) (UniProt Q13237 1-762, limits assumed)
T1 sequence (looked up): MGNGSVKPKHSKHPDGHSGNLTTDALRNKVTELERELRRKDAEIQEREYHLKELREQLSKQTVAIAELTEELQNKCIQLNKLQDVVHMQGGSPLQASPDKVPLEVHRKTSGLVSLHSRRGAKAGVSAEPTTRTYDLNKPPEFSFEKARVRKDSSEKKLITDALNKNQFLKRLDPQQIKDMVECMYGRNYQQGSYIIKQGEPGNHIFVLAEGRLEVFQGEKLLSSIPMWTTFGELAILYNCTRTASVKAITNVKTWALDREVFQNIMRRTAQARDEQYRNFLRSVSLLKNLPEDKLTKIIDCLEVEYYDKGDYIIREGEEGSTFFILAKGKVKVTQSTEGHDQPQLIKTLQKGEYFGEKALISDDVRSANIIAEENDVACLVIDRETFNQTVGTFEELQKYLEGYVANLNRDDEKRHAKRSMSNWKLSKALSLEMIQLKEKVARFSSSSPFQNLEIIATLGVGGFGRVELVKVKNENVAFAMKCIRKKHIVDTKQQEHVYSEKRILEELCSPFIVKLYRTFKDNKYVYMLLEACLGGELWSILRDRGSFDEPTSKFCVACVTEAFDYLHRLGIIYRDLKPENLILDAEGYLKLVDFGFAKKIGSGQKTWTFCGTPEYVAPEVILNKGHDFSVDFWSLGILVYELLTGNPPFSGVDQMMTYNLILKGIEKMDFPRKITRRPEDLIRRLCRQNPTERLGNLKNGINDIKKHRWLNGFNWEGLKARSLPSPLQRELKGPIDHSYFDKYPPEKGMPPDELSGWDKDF

[3] = target: CAMK2D (CaMKII delta) (UniProt Q13557 1-499, limits assumed)
[4] = target: MAP4K5 (KHS1) (UniProt Q9Y4K4 1-846, limits assumed)
[5] = target: T2, CHEK1 (CHK1) CHK1 checkpoint homolog (UniProt O14757 1-476, limits assumed)
T2 sequence (looked up): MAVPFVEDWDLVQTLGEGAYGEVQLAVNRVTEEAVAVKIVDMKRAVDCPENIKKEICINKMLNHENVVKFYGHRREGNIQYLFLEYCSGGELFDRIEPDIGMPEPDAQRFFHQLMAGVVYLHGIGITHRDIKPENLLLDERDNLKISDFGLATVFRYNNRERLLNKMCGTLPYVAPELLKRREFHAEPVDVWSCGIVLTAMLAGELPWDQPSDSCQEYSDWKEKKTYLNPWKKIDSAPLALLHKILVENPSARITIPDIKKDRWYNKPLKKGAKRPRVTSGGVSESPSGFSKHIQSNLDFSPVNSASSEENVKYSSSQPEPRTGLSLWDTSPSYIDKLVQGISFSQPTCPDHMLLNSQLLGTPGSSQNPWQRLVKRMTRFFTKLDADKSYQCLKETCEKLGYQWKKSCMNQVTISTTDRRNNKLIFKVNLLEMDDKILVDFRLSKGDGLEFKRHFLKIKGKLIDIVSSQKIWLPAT

[6] = target: T3, NEK1 NIMA (never in mitosis gene a)-related kinase 1 (UniProt Q96PY6 1-505, limits assumed)
T3 sequence (looked up): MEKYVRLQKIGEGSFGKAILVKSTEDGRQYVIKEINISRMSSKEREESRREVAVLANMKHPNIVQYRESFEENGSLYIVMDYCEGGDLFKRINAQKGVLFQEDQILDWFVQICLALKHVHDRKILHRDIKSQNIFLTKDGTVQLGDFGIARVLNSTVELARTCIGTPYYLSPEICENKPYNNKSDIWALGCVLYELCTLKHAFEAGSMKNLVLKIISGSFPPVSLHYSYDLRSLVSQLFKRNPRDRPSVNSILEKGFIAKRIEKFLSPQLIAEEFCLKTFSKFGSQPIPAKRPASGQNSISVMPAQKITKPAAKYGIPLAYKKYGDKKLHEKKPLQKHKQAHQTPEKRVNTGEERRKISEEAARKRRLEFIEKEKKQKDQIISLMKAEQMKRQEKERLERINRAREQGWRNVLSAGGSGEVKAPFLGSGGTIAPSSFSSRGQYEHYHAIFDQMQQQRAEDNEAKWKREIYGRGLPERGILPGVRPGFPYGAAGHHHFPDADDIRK

[7] = target: MAP2K1 (MEK1) (UniProt Q02750 1-393, limits assumed)
[8] = target: T4, PRKCZ (PKC zeta) (human (printed as (h)), UniProt Q05513 1-592, limits assumed)
T4 sequence (looked up): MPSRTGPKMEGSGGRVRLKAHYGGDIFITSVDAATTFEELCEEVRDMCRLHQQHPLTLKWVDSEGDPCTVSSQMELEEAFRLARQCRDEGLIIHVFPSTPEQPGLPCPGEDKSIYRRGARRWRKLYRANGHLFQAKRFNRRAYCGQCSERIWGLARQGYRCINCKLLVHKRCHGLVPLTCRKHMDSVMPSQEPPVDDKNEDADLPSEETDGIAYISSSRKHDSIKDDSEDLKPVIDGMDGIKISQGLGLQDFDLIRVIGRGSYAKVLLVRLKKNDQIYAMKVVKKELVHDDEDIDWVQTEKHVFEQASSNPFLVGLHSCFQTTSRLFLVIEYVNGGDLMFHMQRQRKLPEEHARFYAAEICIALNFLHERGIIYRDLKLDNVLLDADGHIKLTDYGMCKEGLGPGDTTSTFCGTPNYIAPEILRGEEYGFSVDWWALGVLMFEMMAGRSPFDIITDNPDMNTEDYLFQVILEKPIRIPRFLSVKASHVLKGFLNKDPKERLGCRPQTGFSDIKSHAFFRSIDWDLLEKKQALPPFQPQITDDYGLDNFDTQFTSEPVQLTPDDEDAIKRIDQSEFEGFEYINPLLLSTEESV

[9] = target: PHKG1 (UniProt Q16816 1-387, limits assumed)
[10] = target: ABL1 G250E (UniProt P00519 1-1130, limits assumed)
Also: test concentration or dose not given here.

PHKG1, sequence (Q16816 whole entry): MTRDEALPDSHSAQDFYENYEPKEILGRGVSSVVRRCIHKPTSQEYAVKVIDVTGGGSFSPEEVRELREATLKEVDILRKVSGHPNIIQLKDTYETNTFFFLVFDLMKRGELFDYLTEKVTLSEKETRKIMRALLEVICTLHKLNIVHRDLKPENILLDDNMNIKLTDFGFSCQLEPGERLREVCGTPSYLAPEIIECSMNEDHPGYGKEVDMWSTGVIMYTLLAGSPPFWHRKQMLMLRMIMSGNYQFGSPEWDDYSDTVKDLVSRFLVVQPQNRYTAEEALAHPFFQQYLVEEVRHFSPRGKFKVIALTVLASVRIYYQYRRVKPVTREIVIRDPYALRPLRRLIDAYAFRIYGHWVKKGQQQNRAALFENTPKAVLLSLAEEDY
CAMK2D (CaMKII delta), sequence (Q13557 whole entry, stated change not applied): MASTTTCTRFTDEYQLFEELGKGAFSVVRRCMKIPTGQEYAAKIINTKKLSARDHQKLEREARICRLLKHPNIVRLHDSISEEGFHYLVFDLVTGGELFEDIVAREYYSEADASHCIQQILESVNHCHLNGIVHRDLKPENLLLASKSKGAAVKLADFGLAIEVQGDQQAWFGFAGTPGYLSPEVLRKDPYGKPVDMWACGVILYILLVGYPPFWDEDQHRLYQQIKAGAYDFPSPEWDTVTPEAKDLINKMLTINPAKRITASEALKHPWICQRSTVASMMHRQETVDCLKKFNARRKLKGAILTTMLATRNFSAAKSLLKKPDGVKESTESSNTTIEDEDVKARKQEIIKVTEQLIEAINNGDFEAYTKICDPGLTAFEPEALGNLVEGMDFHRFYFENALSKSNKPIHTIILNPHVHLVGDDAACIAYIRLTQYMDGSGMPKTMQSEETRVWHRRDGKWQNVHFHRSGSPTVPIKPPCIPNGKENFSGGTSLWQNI
ABL1 G250E, sequence (P00519 whole entry G250E): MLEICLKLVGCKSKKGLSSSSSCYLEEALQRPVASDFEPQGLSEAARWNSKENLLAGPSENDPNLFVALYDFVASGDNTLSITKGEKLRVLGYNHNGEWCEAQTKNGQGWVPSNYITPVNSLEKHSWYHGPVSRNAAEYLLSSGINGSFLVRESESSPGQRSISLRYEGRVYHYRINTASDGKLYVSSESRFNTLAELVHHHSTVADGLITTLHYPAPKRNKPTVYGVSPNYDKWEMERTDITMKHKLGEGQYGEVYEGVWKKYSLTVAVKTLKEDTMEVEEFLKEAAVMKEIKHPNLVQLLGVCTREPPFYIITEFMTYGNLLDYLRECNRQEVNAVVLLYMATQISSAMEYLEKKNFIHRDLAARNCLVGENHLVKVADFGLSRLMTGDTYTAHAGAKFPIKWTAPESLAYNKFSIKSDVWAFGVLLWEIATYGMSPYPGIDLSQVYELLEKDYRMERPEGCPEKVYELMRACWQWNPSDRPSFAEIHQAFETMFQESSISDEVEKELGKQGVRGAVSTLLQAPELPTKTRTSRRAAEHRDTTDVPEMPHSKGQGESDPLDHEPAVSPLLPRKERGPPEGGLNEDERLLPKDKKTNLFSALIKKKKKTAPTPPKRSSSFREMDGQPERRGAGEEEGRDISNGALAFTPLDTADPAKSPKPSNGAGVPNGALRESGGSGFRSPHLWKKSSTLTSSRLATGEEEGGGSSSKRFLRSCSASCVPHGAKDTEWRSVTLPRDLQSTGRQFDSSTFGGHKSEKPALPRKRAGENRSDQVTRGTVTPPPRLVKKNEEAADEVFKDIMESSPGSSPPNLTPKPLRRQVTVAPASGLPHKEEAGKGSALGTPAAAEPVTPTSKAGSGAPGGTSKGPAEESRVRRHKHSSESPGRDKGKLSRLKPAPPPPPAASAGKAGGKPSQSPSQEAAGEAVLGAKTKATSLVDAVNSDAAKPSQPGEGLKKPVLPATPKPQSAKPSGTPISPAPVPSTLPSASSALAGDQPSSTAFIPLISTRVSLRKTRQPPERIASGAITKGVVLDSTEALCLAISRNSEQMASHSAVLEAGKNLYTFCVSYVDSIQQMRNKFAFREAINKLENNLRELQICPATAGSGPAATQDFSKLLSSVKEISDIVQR
MAP4K5 (KHS1), sequence (Q9Y4K4 whole entry): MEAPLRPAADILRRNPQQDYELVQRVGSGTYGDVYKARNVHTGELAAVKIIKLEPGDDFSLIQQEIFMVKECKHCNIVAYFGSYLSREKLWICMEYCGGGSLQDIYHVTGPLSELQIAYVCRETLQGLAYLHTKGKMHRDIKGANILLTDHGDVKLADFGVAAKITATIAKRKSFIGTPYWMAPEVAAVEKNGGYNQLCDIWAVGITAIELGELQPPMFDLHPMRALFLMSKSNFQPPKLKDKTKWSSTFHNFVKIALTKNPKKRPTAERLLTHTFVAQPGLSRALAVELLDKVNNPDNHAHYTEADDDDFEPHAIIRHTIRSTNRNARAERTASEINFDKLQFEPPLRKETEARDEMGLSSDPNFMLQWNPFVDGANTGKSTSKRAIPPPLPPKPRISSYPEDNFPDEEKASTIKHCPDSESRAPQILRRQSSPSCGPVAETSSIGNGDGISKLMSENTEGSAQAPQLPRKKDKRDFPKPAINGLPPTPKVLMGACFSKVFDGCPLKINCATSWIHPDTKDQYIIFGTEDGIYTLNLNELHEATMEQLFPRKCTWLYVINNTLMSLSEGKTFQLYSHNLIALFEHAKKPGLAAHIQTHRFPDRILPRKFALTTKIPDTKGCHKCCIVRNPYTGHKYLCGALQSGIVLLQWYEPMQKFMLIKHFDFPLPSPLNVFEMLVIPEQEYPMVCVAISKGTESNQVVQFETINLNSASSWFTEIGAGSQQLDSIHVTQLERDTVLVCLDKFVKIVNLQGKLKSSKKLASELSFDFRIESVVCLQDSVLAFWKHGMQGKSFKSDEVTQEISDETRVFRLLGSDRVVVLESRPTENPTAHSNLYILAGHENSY
ROCK2, sequence (O75116 5-554 limits assumed): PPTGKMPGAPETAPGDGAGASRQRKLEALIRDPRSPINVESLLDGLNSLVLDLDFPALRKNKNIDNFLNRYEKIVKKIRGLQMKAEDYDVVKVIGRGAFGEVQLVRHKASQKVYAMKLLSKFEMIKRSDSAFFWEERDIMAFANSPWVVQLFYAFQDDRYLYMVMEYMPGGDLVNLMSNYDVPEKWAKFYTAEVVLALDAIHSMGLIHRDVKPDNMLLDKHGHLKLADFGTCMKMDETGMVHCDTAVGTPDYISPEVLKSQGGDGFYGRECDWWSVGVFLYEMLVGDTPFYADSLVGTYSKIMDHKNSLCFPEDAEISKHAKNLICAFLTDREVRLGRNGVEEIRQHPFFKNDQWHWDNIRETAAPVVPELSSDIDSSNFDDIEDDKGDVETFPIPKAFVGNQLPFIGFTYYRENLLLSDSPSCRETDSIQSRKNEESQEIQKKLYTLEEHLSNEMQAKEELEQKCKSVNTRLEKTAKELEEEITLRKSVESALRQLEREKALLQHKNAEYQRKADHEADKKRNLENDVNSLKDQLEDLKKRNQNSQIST

SGRPPMIVWFNRPFLIAVSHTHGQTILFMAKVINPVGA [D3 peptide]
% Inhibition mean [1]: 66.7%
% Inhibition mean [2]: 101%
% Inhibition mean [3]: 72.5%
% Inhibition mean [4]: 86.3%
% Inhibition mean [5]: 74%
% Inhibition mean [6]: 84%
% Inhibition mean [7]: 94%
% Inhibition mean [8]: 74.4%
% Inhibition mean [9]: 54.8%
% Inhibition mean [10]: 50.7%
